Data reported in paper PMC3046976.

Target: polysialate O-acetyltransferase NeuO, protein variant with four N-terminal RLKTQDS heptads (Escherichia coli K1 (prophage CUS-3))
Test: crystal structure; apo-enzyme, space group P2_1, three monomers in the asymmetric unit, 1.7 Å; sitting drop at 20°C, 0.1 M Tris pH 7.2, 0.45 M glycine, 0.2 M NH4NO3, 7% PEG4000

stoichiometry N: 3
Substance: polysialate O-acetyltransferase NeuO, protein variant with four N-terminal RLKTQDS heptads (enzyme)
